Results published in US20160280750A1 (NEWSOUTH INNOVATIONS, published 2016).

T1: HLA-B*2705 (human, UniProt P01889 25-302 at identity 0.93))
T1 construct: MHC class I molecule assembled with candidate peptides in the REVEAL assay (ProImmune)
T1 MHC heavy: not shown

T2: HLA-B*2705 (human), P01889
T2 chain: not shown


Molecular target: T1, HLA-B*2705
Test: REVEAL MHC-peptide binding assay, incorporation into HLA-B*2705

Binder | % Positive Control (REVEAL binding score)
ALQYLRLSH [Peptide I.D. 22 ALQYLRLSH] | 0.13 % of positive control
DEYFKRFNA [Peptide I.D. 14 DEYFKRFNA] | 0.06 % of positive control
FNALQYLRL [Peptide I.D. 20 FNALQYLRL] | 1.81 % of positive control
RQLEDIRLD [Peptide I.D. 11 RQLEDIRLD] | 0.5 % of positive control
NLRSIDLQD [Peptide I.D. 28 NLRSIDLQD] | 0.17 % of positive control
YFKRFNALQ [Peptide I.D. 16 YFKRFNALQ] | 0.47 % of positive control
TRRQLEDIR [Peptide I.D. 9 TRRQLEDIR] | 0.02 % of positive control
QLEDIRLDG (Opticin nonamer) [Peptide I.D. 12 QLEDIRLDG] | 0 % of positive control
RRRWRRLTV [Peptide I.D. 36 RRRWRRLTV] | 44 % of positive control
SIDLQDFFS [Peptide I.D. 31 SIDLQDFFS] | 0.26 % of positive control
LNLRSIDLQ [Peptide I.D. 27 LNLRSIDLQ] | 0.11 % of positive control
LQDFFSSLI [Peptide I.D. 34 LQDFFSSLI] | 0.11 % of positive control
IDLQDFFSS [Peptide I.D. 32 IDLQDFFSS] | 0.13 % of positive control
DLQDFFSSL [Peptide I.D. 33 DLQDFFSSL] | 0.35 % of positive control
NALQYLRLS [Peptide I.D. 21 NALQYLRLS] | 0.11 % of positive control
RFNALQYLR [Peptide I.D. 19 RFNALQYLR] | 1.2 % of positive control
QYLRLSHNE [Peptide I.D. 24 QYLRLSHNE] | 0.5 % of positive control
LEDIRLDGN [Peptide I.D. 13 LEDIRLDGN] | 2.17 % of positive control
HTRRQLEDI [Peptide I.D. 8 HTRRQLEDI] | 0.04 % of positive control
KHTRRQLED [Peptide I.D. 7 KHTRRQLED] | 0.04 % of positive control
LRSIDLQDF [Peptide I.D. 29 LRSIDLQDF] | 0.08 % of positive control
RSIDLQDFF [Peptide I.D. 30 RSIDLQDFF] | 0.08 % of positive control
FKRFNALQY [Peptide I.D. 17 FKRFNALQY] | 0.15 % of positive control
HKHTRRQLE [Peptide I.D. 6 HKHTRRQLE] | 0 % of positive control
EYFKRFNAL [Peptide I.D. 15 EYFKRFNAL] | 0.48 % of positive control
ARGQPGVMG [Peptide I.D. 37 ARGQPGVMG] | 0 % of positive control

Molecular target: T2, HLA-B*2705 (human), P01889
Test: as above

Binder | % Positive Control (REVEAL binding score) (% of positive control)
DPCTTWCDA (modifications not checked) [Peptide I.D. 35 …] | 2.18
